Assays:
[1] = biological target: T1, HTRA3^PD/PDZ-LoopA^HTRA1 (human, UniProt P83110 130-160; P83110 171-453); experiment: SPR
T1 chain: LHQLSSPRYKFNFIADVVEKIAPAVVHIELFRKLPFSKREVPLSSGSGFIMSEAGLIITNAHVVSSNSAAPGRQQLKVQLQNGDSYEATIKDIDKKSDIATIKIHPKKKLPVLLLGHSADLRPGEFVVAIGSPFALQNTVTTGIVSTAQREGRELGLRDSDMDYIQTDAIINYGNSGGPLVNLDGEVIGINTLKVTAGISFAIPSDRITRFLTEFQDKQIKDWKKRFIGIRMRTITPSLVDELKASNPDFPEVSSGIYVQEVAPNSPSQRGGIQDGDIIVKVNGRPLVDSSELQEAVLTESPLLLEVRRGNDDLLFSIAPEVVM

[2] = biological target: T2, HTRA2^PD/PDZ-LoopA^HTRA1 (human, UniProt O43464 134-167; O43464 178-458); experiment: SPR
T2 chain: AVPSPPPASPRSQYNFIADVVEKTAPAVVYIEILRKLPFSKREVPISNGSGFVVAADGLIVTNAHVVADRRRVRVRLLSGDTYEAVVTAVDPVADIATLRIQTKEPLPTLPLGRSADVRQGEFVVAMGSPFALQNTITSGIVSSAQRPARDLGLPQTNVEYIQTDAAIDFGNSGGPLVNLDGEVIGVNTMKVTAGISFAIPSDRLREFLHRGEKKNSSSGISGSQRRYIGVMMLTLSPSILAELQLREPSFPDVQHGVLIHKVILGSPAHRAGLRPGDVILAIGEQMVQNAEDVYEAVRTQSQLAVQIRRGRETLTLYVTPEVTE

B1: Fab15H6.v4 (Fab, V domains shown)
VH: EVQLVQSGAEVKKPGASVKVSCKASGYKFTDSEMHWVRQAPGQGLEWIGGVDPETEGAAYNQKFKGRATITRDTSTSTAYLELSSLRSEDTAVYYCTRGYDYDYALDYWGQGTLVTVSS
VL: DIQMTQSPSSLSASVGDRVTITCRASSSVEFIHWYQQKPGKAPKPLISATSNLASGVPSRFSGSGSGTDFTLTISSLQPEDFATYYCQQWSSAPWTFGQGTKVEIK
Kd [1]: 0.0356 nM
Kd [2]: 0.0526 nM

— publication PMC9445180 (2022)
